According to US20160289698A1 (TRUSTEES OF DARTMOUTH COLLEGE, published 2016):

T1: ARR12 (Arabidopsis, UniProt P62598 1-596)
T1 construct: YFP^N or YFP^C fusion of the full-length cDNA in BiFC; also called AtARR12; type-B response regulator AtARR12
T1 sequence (looked up): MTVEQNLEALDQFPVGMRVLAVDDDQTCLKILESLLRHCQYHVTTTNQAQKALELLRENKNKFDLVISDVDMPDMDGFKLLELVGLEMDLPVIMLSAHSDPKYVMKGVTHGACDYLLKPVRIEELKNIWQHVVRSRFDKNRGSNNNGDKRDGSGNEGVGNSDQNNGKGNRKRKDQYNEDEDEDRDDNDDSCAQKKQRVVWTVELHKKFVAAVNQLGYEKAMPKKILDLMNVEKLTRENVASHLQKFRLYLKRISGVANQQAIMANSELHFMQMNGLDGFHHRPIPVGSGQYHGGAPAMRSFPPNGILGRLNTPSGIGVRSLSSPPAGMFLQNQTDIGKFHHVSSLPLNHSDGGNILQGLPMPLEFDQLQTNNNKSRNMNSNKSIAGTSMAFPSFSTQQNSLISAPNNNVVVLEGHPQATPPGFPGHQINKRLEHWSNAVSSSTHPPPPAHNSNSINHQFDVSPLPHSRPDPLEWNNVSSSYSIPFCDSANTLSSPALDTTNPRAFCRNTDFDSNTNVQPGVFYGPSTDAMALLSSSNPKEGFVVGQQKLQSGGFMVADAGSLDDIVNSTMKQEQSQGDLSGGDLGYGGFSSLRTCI

T2: ARR2 (Arabidopsis, UniProt Q9ZWJ9 1-664, limits assumed)
T2 construct: also called type-B response regulator ARR2
T2 sequence (looked up): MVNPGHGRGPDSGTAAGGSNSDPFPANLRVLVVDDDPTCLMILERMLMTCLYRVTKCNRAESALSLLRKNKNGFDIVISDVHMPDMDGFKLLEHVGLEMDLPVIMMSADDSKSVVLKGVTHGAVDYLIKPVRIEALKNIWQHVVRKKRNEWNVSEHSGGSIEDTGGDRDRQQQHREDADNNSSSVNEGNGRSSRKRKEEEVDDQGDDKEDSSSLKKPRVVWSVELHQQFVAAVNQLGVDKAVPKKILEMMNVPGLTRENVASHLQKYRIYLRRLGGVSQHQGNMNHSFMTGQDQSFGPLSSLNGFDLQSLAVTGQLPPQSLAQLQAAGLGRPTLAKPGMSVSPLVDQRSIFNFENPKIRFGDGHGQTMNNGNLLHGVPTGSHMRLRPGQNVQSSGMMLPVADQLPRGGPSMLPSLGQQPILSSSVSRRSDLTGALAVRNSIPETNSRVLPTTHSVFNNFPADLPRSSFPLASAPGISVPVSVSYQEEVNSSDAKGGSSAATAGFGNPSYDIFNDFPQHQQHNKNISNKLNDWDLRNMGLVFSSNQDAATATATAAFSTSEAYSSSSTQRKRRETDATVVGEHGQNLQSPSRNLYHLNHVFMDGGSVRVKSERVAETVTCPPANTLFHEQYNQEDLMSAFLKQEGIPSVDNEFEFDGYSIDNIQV

T3: ARR10 (Arabidopsis, UniProt O49397 1-552, limits assumed)
T3 construct: also called type-B response regulator ARR10
T3 sequence (looked up): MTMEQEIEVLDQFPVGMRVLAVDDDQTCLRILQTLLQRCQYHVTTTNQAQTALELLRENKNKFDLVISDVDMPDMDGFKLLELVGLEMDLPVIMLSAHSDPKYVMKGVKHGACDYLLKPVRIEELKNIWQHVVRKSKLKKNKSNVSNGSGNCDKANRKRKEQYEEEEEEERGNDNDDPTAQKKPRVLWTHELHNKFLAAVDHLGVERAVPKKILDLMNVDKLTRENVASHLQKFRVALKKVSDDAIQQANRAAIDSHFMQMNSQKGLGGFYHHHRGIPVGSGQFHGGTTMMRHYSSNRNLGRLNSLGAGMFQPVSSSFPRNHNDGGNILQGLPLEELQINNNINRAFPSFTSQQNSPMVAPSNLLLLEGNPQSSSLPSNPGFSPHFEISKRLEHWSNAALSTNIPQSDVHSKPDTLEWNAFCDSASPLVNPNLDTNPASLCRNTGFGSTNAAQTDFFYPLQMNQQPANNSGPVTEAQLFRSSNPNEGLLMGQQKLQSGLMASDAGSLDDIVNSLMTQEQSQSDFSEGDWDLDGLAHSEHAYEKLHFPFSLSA

T4: ARR20 (type-B ARR subfamily-3) (Arabidopsis, UniProt Q9LZJ8 1-426, limits assumed)
T4 sequence (looked up): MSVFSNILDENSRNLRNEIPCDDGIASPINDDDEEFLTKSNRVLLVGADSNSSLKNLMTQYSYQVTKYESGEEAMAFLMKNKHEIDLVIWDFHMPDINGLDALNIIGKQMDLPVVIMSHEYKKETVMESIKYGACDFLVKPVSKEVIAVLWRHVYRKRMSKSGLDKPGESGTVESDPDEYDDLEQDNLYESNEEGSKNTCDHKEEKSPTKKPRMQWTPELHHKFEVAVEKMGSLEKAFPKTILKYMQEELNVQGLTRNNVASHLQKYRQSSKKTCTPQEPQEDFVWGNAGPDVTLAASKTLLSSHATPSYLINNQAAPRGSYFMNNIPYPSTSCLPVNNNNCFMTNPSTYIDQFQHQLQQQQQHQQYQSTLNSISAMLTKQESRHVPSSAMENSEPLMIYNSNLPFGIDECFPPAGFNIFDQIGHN

T5: ARR21 (subfamily-3) (Arabidopsis, UniProt Q9LYP5 1-613, limits assumed)
T5 sequence (looked up): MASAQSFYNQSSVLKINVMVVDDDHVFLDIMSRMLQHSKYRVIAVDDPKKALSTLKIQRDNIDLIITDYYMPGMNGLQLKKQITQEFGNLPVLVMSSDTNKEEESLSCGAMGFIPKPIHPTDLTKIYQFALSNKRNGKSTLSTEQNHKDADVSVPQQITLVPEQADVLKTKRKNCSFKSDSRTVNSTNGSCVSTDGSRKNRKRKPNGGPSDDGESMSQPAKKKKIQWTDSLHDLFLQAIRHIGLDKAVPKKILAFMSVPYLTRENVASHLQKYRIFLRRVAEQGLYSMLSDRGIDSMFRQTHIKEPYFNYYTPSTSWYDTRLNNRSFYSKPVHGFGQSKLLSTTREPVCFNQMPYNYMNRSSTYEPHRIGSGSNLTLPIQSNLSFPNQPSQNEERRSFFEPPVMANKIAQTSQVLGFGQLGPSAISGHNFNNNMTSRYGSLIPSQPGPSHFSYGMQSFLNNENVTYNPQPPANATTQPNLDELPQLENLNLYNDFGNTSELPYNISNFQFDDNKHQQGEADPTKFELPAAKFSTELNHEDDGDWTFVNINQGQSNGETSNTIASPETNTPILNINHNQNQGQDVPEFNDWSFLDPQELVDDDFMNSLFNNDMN


Key:
Assay in all cases: yeast two-hybrid (LexA-KMD bait, B42-ARR prey, X-gal)
ARR12 = molecular target: T1, ARR12
Text: (§1) The DUPLEX-A™ system (OriGene Technologies) was used for yeast two-hybrid analysis of interactions. KMD cDNAs were cloned into the pGilda bait vector, which produces an in-frame fusion with the LexA DNA-binding domain. Type-B ARR coding sequences were cloned into the pJG4-5 prey vector, which produces a B42 activation domain. The yeast strain EGY48 (MATa, trp1, his3, ura3, leu2::6 LexAop-LEU2) that contains the lacZ reporter plasmid pSH18-34 was transformed with the appropriate “bait” and “prey” plasmids. Interactions were tested on 5-bromo-4-chloro-3-indolyl-p-D-galactopyranoside (X-gal) medium (Ryu, et al. (2005) Cell 120(3): 395-406).
(§2) The KMD proteins also interacted with ARR20 (type-B ARR subfamily-3), but not with ARR19 (subfamily-2) and ARR21 (subfamily-3). […] All four KMD proteins interacted with both ARR1 and ARR12 in a BiFC assay. Strong fluorescence was detected in the nuclei of cells, consistent with the subcellular localization of the type-B ARRs (Hwang & Sheen J (2001) Nature 413(6854):383-389; Mason, et al. (2004) Plant Physiol. 135(2):927-937).

ARR2 = molecular target: T2, ARR2
Text: as §1, §2

ARR10 = molecular target: T3, ARR10
Text: as §1, §2

[1] = molecular target: T4, ARR20 (type-B ARR subfamily-3)
Text: as §1, §2

ARR21 (subfamily-3) = molecular target: T5, ARR21 (subfamily-3)
Text: as §1, §2

binding result (ARR12) | binding result (ARR2) | binding result (ARR10) | binding result [1] | binding result (ARR21 (subfamily-3)) | Binder
binds | binds | binds | binds | no binding | KISS ME DEADLY 4 (KMD4) (other, Arabidopsis, UniProt Q9M1Y1 1-418, looked up, Full-length protein; LexA fusion in yeast two-hybrid, YFP^N or YFP^C fusion in BiFC; also called At3g59940) MGVSKKKSGEIRGDLIPGLPEELAIECLVRVPFQFHSSIKSVCRSWKCVISSRSFIKERIGFGKAESLLCLVQPLTSPPSPAMMEGGEMSQKKKEEEEGESQMTQQLLQPRITGTPLYGLSVYNATLDTWHRVAIPERIPLFCECVAIQDAGKVLLIGGWDPETLQPVRDVFVLDFFAGEGSGRRFRRGRPMSAARSFFACASVGSTKVYVAGGHDDQKNALRSAEVYDVEKDEWSMLPPMTEGRDECHGFSMATDPGFCVLSGYGTETQGQFRSDGEIYDPITNSWSTIENVWPFPDLSPRGRTAAAAAEFPGDFRGCRLWCFIDSERQSQPHWEVEDDSMKWKVIMDTIRLPVTTMTSVFAGSLSGQAVAMIGGGGEESGTMMVKTTAEKNGGKWSHVNTPSGFSSLPFSCSSIYV
binds | binds | binds | binds | no binding | KISS ME DEADLY 3 (KMD3) (other, Arabidopsis, UniProt O80582 1-409, looked up, Full-length protein; LexA fusion in yeast two-hybrid, YFP^N or YFP^C fusion in BiFC; also called At2g44130) MTMEVSKKKGGDFQQCHELIPGLPSELALECLVRVPFQFQSAMRSVCRSWRSLLSDSSFIQERRRCGKTELLLCLVQPLTPPIPASKSVDETLMVDEKKSEDESHPRVFCTPRFGLSVYNAAMSTWHRVAFPEEEQIPLFCECVVLQDAGKILLIGGWDPETLQPTRDVYVLEFAGRKWRRGAPMKESRSFFACASVSPTKVYVAGGHDDQKNALRSAEVYDVEKDEWSSVTPMTEGRDECQGFAVGMGLRFCVLSGYGTESQGRFRSDGEIYDPATDSWSRIDNVWRFPDTSPRGRTAGDFRSSSTLWCFTDTDLQSERRWETNDDSRNLKLDLQSIQLPMTGSSVFAGSLGGESVVMIGGKRESEGEGEGGVMMKMTTEKKMGKWSHHVHIPCDFSTLPFSHASIYV
